Reference: publication PMC8854672, “Tracing transport of protein aggregates in microgravity versus unit gravity crystallization” (NPJ Microgravity, 2022)
“And” between values parts separate entries of the source, which are not always exact repeats. Equal values may be shown once.

Molecular target: the molecule itself
Assay: SEC; preparative HiLoad 26/600 Superdex 200 column after glutathione affinity chromatography; tetramer V_elution about 170 mL

B1: Plasmodium falciparum glutathione-S-transferase (enzyme, UniProt Q8ILQ7 1-211, looked up)
chain: MGDNIVLYYFDARGKAELIRLIFAYLGIEYTDKRFGVNGDAFVEFKNFKKEKDTPFEQVPILQIGDLILAQSQAIVRYLSKKYNICGESELNEFYADMIFCGVQDIHYKFNNTNLFKQNETTFLNEDLPKWSGYFEKLLKKNHTNNNNDKYYFVGNNLTYADLAVFNLYDDIETKYPSSLKNFPLLKAHNEFISNLPNIKNYITNRKESVY
notes: glutathione S-transferase of Plasmodium falciparum; recombinant; printed M.W. of the dimer ~56 kDa; Found as dimer and as tetramer; The dimer for crystallization was eluted with and stabilised by 10 mM S-(p-bromobenzyl)-GSH; The tetramer was labelled with Alexa Fluor 488 only after SEC and DLS; also called PfGST
stoichiometry N: 2 and 4
